# T1: A118 recombinase (Listeria monocytogenes phage A118)
# T1 chain: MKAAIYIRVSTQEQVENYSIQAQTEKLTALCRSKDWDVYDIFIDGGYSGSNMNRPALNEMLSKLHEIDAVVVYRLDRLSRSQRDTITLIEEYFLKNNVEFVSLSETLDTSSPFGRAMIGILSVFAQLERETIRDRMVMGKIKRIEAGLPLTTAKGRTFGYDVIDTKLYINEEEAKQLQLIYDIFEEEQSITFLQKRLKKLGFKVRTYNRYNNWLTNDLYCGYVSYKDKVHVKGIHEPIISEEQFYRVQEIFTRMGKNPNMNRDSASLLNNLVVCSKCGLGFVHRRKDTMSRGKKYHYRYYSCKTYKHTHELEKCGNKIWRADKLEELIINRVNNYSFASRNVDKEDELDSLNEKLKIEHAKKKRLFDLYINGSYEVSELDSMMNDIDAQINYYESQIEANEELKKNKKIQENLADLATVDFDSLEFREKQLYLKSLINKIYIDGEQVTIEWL
# T2: Bxb1 recombinase (Mycobacterium smegmatis phage Bxb1)
# T2 chain: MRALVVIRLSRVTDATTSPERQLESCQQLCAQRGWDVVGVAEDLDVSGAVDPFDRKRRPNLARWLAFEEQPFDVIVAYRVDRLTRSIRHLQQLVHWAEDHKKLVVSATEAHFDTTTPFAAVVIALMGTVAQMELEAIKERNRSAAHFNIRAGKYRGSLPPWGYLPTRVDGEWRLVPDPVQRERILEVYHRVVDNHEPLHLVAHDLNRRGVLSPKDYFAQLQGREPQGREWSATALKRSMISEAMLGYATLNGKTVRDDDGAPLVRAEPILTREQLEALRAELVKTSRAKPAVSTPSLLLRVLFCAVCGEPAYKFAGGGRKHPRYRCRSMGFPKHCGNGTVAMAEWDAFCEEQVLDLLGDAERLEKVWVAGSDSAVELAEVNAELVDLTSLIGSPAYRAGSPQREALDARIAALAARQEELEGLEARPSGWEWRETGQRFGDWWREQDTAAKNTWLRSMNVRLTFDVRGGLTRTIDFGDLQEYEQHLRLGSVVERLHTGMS
# B1: A118 attP (dsDNA)
# DNA 1: ACGCTAGTAGCTTGTTTATTTAGATTGTTTAGTTCCTCGTTTTCTCTCGTTGGAAGAAGAAGAAACGAGAAACTAAAATTATAAATAAAAAGTAACCTA
# DNA 2: TAGGTTACTTTTTATTTATAATTTTAGTTTCTCGTTTCTTCTTCTTCCAACGAGAGAAAACGAGGAACTAAACAATCTAAATAAACAAGCTACTAGCGT
# B2: Bxb1 attB (dsDNA)
# DNA 1: GGCCGGCTTGTCGACGACGGCGGTCTCCGTCGTCAGGATCATCCGG
# DNA 2: CCGGATGATCCTGACGACGGAGACCGCCGTCGTCGACAAGCCGGCC
# B3: A118 attB (dsDNA)
# DNA 1: TTGAGCTAATTAAAACCAGCTGTAACTTTTTCGGATCAAGCTATGAAGGACGCAAAGAGGGAACTAAACACTTAATTGGTGTTACCCATAAGCCAC
# DNA 2: GTGGCTTATGGGTAACACCAATTAAGTGTTTAGTTCCCTCTTTGCGTCCTTCATAGCTTGATCCGAAAAAGTTACAGCTGGTTTTAATTAGCTCAA
# How the values were obtained:
# Conditions in all cases: chain copies: 4
# A118 recombinase [1] = target: T1, A118 recombinase; experiment: cell_activity; attP x attB recombination with N8, tobacco BY2 protoplasts; also active in mammalian cells
# Description: (§1) Cell suspension cultures of Nicotiana tobacum BY2 were maintained in MS medium in the dark and subcultured weekly (Nagata, T., T. Nemoto, and S. Hasezawa. 1992. Tobacco BY-2 cell line as the Hela cell in the cell biology of higher plants. Intl. Rev. Cytol., 132:1-30). Protoplasts prepared from 3 day-old cultures were resuspended in 0.4 M mannitol and distributed into 35 mm petri dishes in 1 mL aliquots (˜5×10⁵ cells). Protoplasts were mixed with plasmid DNA and electroporated at 0.56 K Volts for 80μ seconds using a square wave electroporation system with Petripulser electrode (BTX, San Diego, Calif., USA). The cells were transfected with 10 μg for the intramolecular recombination test plasmid and 0 or 10 μg for the recombinase expression plasmid. Following the electroporation, protoplasts were diluted with 1 mL of 2× protoplast culture medium (Watanabe, Y., T. Meshi, and Y. Okada. 1987. Infection of tobacco protoplasts with in vitro transcribed tobacco mosaic virus RNA using an improved electroporation method. Virology, 192:264-272), aliquotted as two 1 mL cultures, and incubated at 27° C. for 17 h. Protoplasts were lysed by freeze thawing and addition of 250 μL 5× passive lysis buffer (Promega, Madison, Wis., USA). Twenty μL of cell extract was assayed for luciferase activity using Dual Luciferase Assay kit on a plate reader equipped with injectors. […]
# Bxb1 recombinase = target: T2, Bxb1 recombinase; experiment: cell_activity; partner of N5, NIH3T3; chromosomal integration also seen (Tables 1-2)
# Description: Cells were maintained at 37° C. and 5% CO₂ in DMEM supplemented with 10% fetal bovine serum and 1% penicillin/streptomycin (obtained from Invitrogen, Carlsbad, Calif.) or in other media as indicated. On the day of transfection, cells were plated at different densities depending on the cell type used. The cells were transfected with intramolecular recombination assay plasmid alone or along with varying amounts of recombinase expression plasmid DNA using Lipofectamine 2000™ according to the manufacturers instructions (Invitrogen, Carlsbad, Calif.). Constitutively expressed Renilla luciferase reporter plasmid (pRL-CMV from Promega, Madison, Wis.) was co-transfected (2 ng/well) and used as an internal control to normalize the data. Twenty-four or forty-eight hours after transfection (depending on the cell line), media was discarded and cells were lysed with passive lysis buffer (Promega, Madison, Wis.). Extracts were then assayed using Dual Luciferase Assay kit (Promega, Madison, Wis.) on a plate reader equipped with injectors (Dynex Technologies, Chantilly, Va.). The data shown are the ratios of luciferase (Luc) and Renilla luciferase (RLuc) activities, unless noted otherwise. Similar results were observed when Luc activities (relative light units) were compared (data not shown). […]
# A118 recombinase [2] = target: T1, A118 recombinase; experiment: cell_activity; partner of N7, tobacco BY2 protoplasts; chromosomal integration also seen (Tables 1-2)
# Description: as §1
binder,measurement,setting,value
B1,activity,A118 recombinase [1],364 fold induction
B2,activity,Bxb1 recombinase,66 fold induction
B3,activity,A118 recombinase [2],364 fold induction

# Reference: patent publication US20060172377, “Site-specific serine recombinases and methods of their use” (published 2006)
